# From US20170145092A1 (CHINA SYNTHETIC RUBBER, published 2017)
# T1: recombinant PLVAP51-442 protein (human, UniProt Q9BX97 51-442)
# T1 construct: also called recombinant PLVAP protein; recombinant human PLVAP protein
# T1 sequence: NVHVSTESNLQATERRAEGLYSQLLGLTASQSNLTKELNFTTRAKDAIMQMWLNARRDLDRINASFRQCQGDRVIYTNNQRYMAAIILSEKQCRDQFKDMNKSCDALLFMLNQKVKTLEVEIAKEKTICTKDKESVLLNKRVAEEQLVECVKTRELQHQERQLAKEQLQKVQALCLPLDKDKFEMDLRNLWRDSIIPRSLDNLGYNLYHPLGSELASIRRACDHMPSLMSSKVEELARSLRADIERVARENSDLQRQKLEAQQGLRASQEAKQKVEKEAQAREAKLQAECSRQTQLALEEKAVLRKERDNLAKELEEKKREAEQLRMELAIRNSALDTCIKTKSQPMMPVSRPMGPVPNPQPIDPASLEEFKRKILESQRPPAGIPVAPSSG
# Target: T1, recombinant PLVAP51-442 protein
# Test: ANTQ300 quartz crystal microbalance
# Method: Binding affinities of KFCC-GY4 and KFCC-GY5 anti-PLVAP monoclonal antibodies were measured at the ANT Technology Co., Ltd. (Taipei, Taiwan) using ANTQ300 quartz crystal microbalance technology (Lin S., et al. J Immunol Methods 239:121-124 (2000)).
row,Binder,Kd [nM]
1,"KFCC-GY4 monoclonal antibody (antibody, V domains shown, Mouse monoclonal antibody from a hybridoma, purified by Protein G; also called KFCC-GY4 mAb; KFCC-GY4 monoclonal anti-PLVAP antibody) VH: EVQLQQSGAEFVRSGASVKLSCTASGFNIKDYYIHWVKQRPEQGLEWIGWIDPENGDIEYAPKFQGKATMTADTSSNTAYLQFSSLTSEDTAVYYCLYQEGSWGQGTTLTVSS VL: not shown",60
2,"KFCC-GY5 monoclonal antibody (antibody, V domains shown, Mouse monoclonal antibody from a hybridoma, purified by Protein G; also called KFCC-GY5 mAb; KFCC-GY5 monoclonal anti-PLVAP antibody) VH: QVQLQQPGAELVRPGASVKLSCKASGYTFTSNYINWVKQRPGQGLEWIGNIYPSDGFTNYNQKFKDRATLTVDKSSSTAYMQLSSPTSEDSAVYYCTRNFDVWGAGTTVTVSS VL: DVVMTQTPLSLPVSLGDQASISCRSSQSLVHSNGNTYLQWYLQKPGQSPKLLIYTVSNRFSGVPDRFSGSGSGPDFTLKISRVEAEDLGVYFCSQSTHVPFTFGSGTKLEIK",41
